This note sets out measurements from PMC2946844.

Holding throughout (assay): SPR
For data set [1], the target named is T1, 1xMBD-GFP (UniProt Q9Z2E2 1-75).
T1 sequence: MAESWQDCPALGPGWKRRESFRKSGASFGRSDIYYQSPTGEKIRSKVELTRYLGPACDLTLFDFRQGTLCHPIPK

In data set [2] the target is T1, 1xMBD-GFP. This is another data set of the same source.
Data set [3] concerns the target T1, 1xMBD-GFP. The source holds these as a separate data set.

Where two headings read alike, the source gives them in different places.

B1: o_m_o/m_o_o (dsDNA)
DNA 1: TTTGCGGTCCGCTGCCCGACCC
DNA 2: GGGTCGGGCAGCGGACCGCAAA
modifications: strand 1 5mC10; strand 2 5mC17
As to B1, binding in the data set with 1xMBD-GFP [1] was put at a Kd of 8000 ± 100 nM.

B2: o_o_m_o/o_o_m_m (dsDNA)
DNA 1: GAAGTCAACAGGACGGACGCCGCGCAA
DNA 2: CTCTTTCTTTGCGCGGCGTCCGTCCTGTTGACTTCCTCT
modifications: strand 1 5mC21; strand 2 5mC12,5mC14
B2 came in with a Kd with 1xMBD-GFP [1] of 156 ± 2 nM.

B3: o_o_m_o/m_m_o_o (dsDNA)
DNA 1: GAAGTCAACAGGACGGACGCCGCGCAA
DNA 2: CTCTTTCTTTGCGCGGCGTCCGTCCTGTTGACTTCCTCT
modifications: strand 1 5mC21; strand 2 5mC17,5mC21
In turn, B3 returned a Kd with 1xMBD-GFP [1] of 4970 ± 70 nM. Compared with the last molecule, the Kd is about 32-fold higher.

B4: m_o_o_o/m_m_o_o (dsDNA)
DNA 1: GAAGTCAACAGGACGGACGCCGCGCAA
DNA 2: CTCTTTCTTTGCGCGGCGTCCGTCCTGTTGACTTCCTCT
modifications: strand 1 5mC14; strand 2 5mC17,5mC21
In the data set with 1xMBD-GFP [1], B4 registered a Kd of 561 ± 6 nM.

B5: o_o_o_m/o_o_m_m (dsDNA)
DNA 1: GAAGTCAACAGGACGGACGCCGCGCAA
DNA 2: CTCTTTCTTTGCGCGGCGTCCGTCCTGTTGACTTCCTCT
modifications: strand 1 5mC23; strand 2 5mC12,5mC14
The molecule B5 gave a Kd with 1xMBD-GFP [1] of 281 ± 7 nM.

B6: o_m_o_o/m_m_o_o (dsDNA)
DNA 1: GAAGTCAACAGGACGGACGCCGCGCAA
DNA 2: CTCTTTCTTTGCGCGGCGTCCGTCCTGTTGACTTCCTCT
modifications: strand 1 5mC18; strand 2 5mC17,5mC21
Consider B6, for which, in the data set with 1xMBD-GFP [1], the Kd came out at 377 ± 7 nM.

B7: o_o_o_o/m_m_o_o (dsDNA)
DNA 1: GAAGTCAACAGGACGGACGCCGCGCAA
DNA 2: CTCTTTCTTTGCGCGGCGTCCGTCCTGTTGACTTCCTCT
modifications: strand 2 5mC17,5mC21
In the data set with 1xMBD-GFP [1], B7 showed a Kd of 7500 ± 200 nM.

B8: o_o_o_m/m_m_o_o (dsDNA)
DNA 1: GAAGTCAACAGGACGGACGCCGCGCAA
DNA 2: CTCTTTCTTTGCGCGGCGTCCGTCCTGTTGACTTCCTCT
modifications: strand 1 5mC23; strand 2 5mC17,5mC21
As for B8, binding with 1xMBD-GFP [1] was put at a Kd of 3940 ± 60 nM.

B9: m_o_o/m_o_o (dsDNA)
DNA 1: TTTGCGGTCCGCTGCCCGACCC
DNA 2: GGGTCGGGCAGCGGACCGCAAA
modifications: strand 1 5mC5; strand 2 5mC17
B9 had a Kd with 1xMBD-GFP [1] of 4200 ± 40 nM.

B10: o_o_o/m_o_o (dsDNA)
DNA 1: TTTGCGGTCCGCTGCCCGACCC
DNA 2: GGGTCGGGCAGCGGACCGCAAA
modifications: strand 2 5mC17
B10 showed a dissociation constant (Kd) with 1xMBD-GFP [1] of 48000 ± 2000 nM. Against the preceding molecule, the Kd is about 11-fold higher.

B11: o_o_m/m_m_m (dsDNA)
DNA 1: TTTGCGGTCCGCTGCCCGACCC
DNA 2: GGGTCGGGCAGCGGACCGCAAA
modifications: strand 1 5mC17; strand 2 5mC5,5mC12,5mC17
B11: the Kd with 1xMBD-GFP [2] was 189 ± 1 nM; in the data set with 1xMBD-GFP [3] it was 209 ± 2 nM.

B12: m_o_o*/m_o_o (dsDNA)
DNA 1: GTAGTTTGCGGTCCGCTGCCCGACC
DNA 2: GGGTCGGGCAGCGGACCGCAAA
modifications: strand 1 5mC9; strand 2 5mC17
For B12, binding with 1xMBD-GFP [1] was put at a Kd of 870 ± 10 nM.
